The data set concerns the molecule itself. The experiment in a line: crystal structure; SaGpsB 1-75 at 5 mg/mL, no ligand; reservoir 1.0 M succinic acid, 0.1 M HEPES pH 7.5, 1 %w/v PEG 2000 MME; one dimer in the asymmetric unit; molecular replacement.

Usually stoichiometry N stands for the number of molecules, sites or subunits per partner or assembly.

B1: N-terminal domain (residues 1–75) of Staphylococcus aureus GpsB (domain or fragment, Staphylococcus aureus strain NCTC 8325, UniProt Q2FYI5 1-75, looked up)
chain: MSDVSLKLSAKDIYEKDFEKTMARGYRREEVDAFLDDIIADYQKMADMNNEVVKLSEENHKLKKELEELRLRVAT
notes: GpsB, Staphylococcus aureus strain NCTC 8325, Uniprot Q2FYI5, SAOUHSC_01462, residues 1-75 (N-terminal dimerization domain); Asymmetric homodimer in the crystal; also called SaGpsB; GpsB 1–75; source: E. coli BL21 (DE3), purified (Ni-NTA, SUMO protease cleavage, anion exchange, Superdex75 SEC); not shown: 10xHis, N-terminal, cleaved; SUMO, N-terminal, cleaved
As for B1, the “stoichiometry N” value stood at 2.

The values above are taken from article PMC12880628, “X-Ray Crystal Structure of the N-Terminal Domain of Staphylococcus Aureus Cell-Cycle Protein GpsB” (Crystals, 2025).
